Results reported in patent US8399201B2, “Polypeptide complex of TRPM8 and calmodulin and its uses thereof” (Janssen Pharmaceutica N.V., priority 2005, dated 2013).

Target: T1, calmodulin (Rattus norvegicus, UniProt P0DP29)
T1 construct: made in house; host or cells: Escherichia coli BL21 (pGEX-4T-1 based plasmid)
Assay: Pull-down of 35S-methionine-labelled TRPM8 fragments on GST-CaM agarose-GSH beads, SDS/PAGE and autoradiography
Type: binding
Design: key to Binding (binding activity to calmodulin): (+) binding was detected; (−) no binding was detected
Details: for binding to CaM (result in words): TRPM8 fragments, FIG. 1 and FIG. 2; for Binding (binding activity to calmodulin): rat TRPM8 constructs, binding buffer with 2 mM CaCl2, 30 min room temperature
Protocol: ^35S-methionine labelled TRPM8 fragments were synthesized using TnT® T7 Quick Coupled Transcription/Translation System (Promega) following the vendor recommended protocol. Briefly, 10 μl of 0.1 μg/μl pAGA3 based TRPM8 construct (listed in Table 1) was added to 90 μl of TNT Quick Master Mix with 2 μl of [^35S]-methionine (1000 Ci/mmmol at 10 mCi/ml). The reaction mixture was incubated at 30° C. for 90 min. Aliquots of the incubation mixtures were used directly either for analysis by SDS/PAGE to confirm synthesis of proteins of the desired size or for the ability to bind to GST or GST-CaM.
The GST-CaM fusion plasmid was based on pGEX-4T-1 (Amersham Pharmacia). The CaM was fused to the C-terminus of GST. After transformation into Escherichia coli BL21, a single colony was picked and grown in brow medium to OD of 1.0 at 600 nm. The synthesis of the fusion protein was induced with 0.2 mM isopropyl β-D-thiogalactoside (IPTG). After growing 2-3 hours in the presence of IPTG at 27° C., the cells were collected by centrifugation, resuspended in NETN lysis buffer (0.5% Nonidet P-40/1 mM EDTA/20 mM Tris-HCl, pH8.0/100 mM NaCl; 1 ml of buffer per 20 ml of culture), and lysed by sonication. The cell lysate was separated from the cell debris by centrifugation at 10,000 g for 10 min at 4° C. GST-CaM in the cell lysate was adsorbed for 30 min at room temperature to agarose-glutathione (GSH) beads (Amersham Pharmacia) (1 vol. of lysates/1 vol of 50% (vol/vol) slurry of Agarose-GSH beads in NETN). The beads were washed with binding buffer (20 mM Tris-HCl, pH7.5/100 mM NaCl/2 mM CaCl2/0.5% Tween20).
Agarose-GSH beads (50% (vol./vol.)) bound with about 1 μg of GST or GST-CaM were incubated with 10 μl of ^35S-labelled TRPM8 fragment for 30 min at room temperature in a final volume of 200 μl of binding buffer. At the end of the incubation, the beads were washed three times with 1.0 ml of binding buffer and resuspended in 20 μl of 2× laemmli's sample loading buffer. Protein(s) bound to the beads, including the GST-CaM fusion protein, and possibly the ^35S-labelled TRPM8 fragment that interact with the GST-CaM fusion protein, were separated by SDS/PAGE followed by autoradiography.

binding to CaM (result in words) | Binding (binding activity to calmodulin) | Molecule
found to bind to CaM | + | TRPM8-1/pAGA3: Rat TRPM8 fragment, residues M1-K432, 432 aa, in vitro translated from pAGA3 (protein) MSFEGARLSMRSRRNGTLGSTRTLYSSVSRSTDVSYSESDLVNFIQANFKKRECVFFTRDSKAMESICKCGYAQSQHIEGTQINQNEKWNYKKHTKEFPTDAFGDIQFETLGKKGKYLRLSCDTDSETLYELLTQHWHLKTPNLVISVTGGAKNFALKPRMRKIFSRLIYIAQSKGAWILTGGTHYGLMKYIGEVVRDNTISRNSEENIVAIGIAAWGMVSNRDTLIRNCDDEGHFSAQYIMDDFMRDPLYILDNNHTHLLLVDNGCHGHPTVEAKLRNQLEKYISERTSQDSNYGGKIPIVCFAQGGGRETLKAINTSVKSKIPCVVVEGSGQIADVIASLVEVEDVLTSSMVKEKLVRFLPRTVSRLPEEEIESWIKWLKEILESPHLLTVIKMEEAGDEVVSSAISYALYKAFSTNEQDKDNWNGQLKL
 | − | TRPM8-9/pAGA3: Rat TRPM8 fragment, residues A172-S352, 180 aa (protein) AQSKGAWILTGGTHYGLMKYIGEVVRDNTISRNSEENIVAIGIAAWGMVSNRDTLIRNCDDEGHFSAQYIMDDFMRDPLYILDNNHTHLLLVDNGCHGHPTVEAKLRNQLEKYISERTSQDSNYGGKIPIVCFAQGGGRETLKAINTSVKSKIPCVVVEGSGQIADVIASLVEVEDVLTSS
found to bind CaM | + | TRPM8-6/pAGA3: Rat TRPM8 fragment, residues M63-S352, 289 aa (protein) AMESICKCGYAQSQHIEGTQINQNEKWNYKKHTKEFPTDAFGDIQFETLGKKGKYLRLSCDTDSETLYELLTQHWHLKTPNLVISVTGGAKNFALKPRMRKIFSRLIYIAQSKGAWILTGGTHYGLMKYIGEVVRDNTISRNSEENIVAIGIAAWGMVSNRDTLIRNCDDEGHFSAQYIMDDFMRDPLYILDNNHTHLLLVDNGCHGHPTVEAKLRNQLEKYISERTSQDSNYGGKIPIVCFAQGGGRETLKAINTSVKSKIPCVVVEGSGQIADVIASLVEVEDVLTSS
 | − | TRPM8-10/pAGA3: Rat TRPM8 fragment, residues D198-S352, 154 aa (protein) DNTISRNSEENIVAIGIAAWGMVSNRDTLIRNCDDEGHFSAQYIMDDFMRDPLYILDNNHTHLLLVDNGCHGHPTVEAKLRNQLEKYISERTSQDSNYGGKIPIVCFAQGGGRETLKAINTSVKSKIPCVVVEGSGQIADVIASLVEVEDVLTSS
found to bind CaM | + | TRPM8-7/pAGA3: Rat TRPM8 fragment, residues V145-S352, 207 aa (protein) VISVTGGAKNFALKPRMRKIFSRLIYIAQSKGAWILTGGTHYGLMKYIGEVVRDNTISRNSEENIVAIGIAAWGMVSNRDTLIRNCDDEGHFSAQYIMDDFMRDPLYILDNNHTHLLLVDNGCHGHPTVEAKLRNQLEKYISERTSQDSNYGGKIPIVCFAQGGGRETLKAINTSVKSKIPCVVVEGSGQIADVIASLVEVEDVLTSS
 | − | TRPM8-8/pAGA3: Rat TRPM8 fragment, residues M219-S352, 133 aa (protein) MVSNRDTLIRNCDDEGHFSAQYIMDDFMRDPLYILDNNHTHLLLVDNGCHGHPTVEAKLRNQLEKYISERTSQDSNYGGKIPIVCFAQGGGRETLKAINTSVKSKIPCVVVEGSGQIADVIASLVEVEDVLTSS
not | − | TRPM8-2/pAGA3: Rat TRPM8 fragment, residues M353-T690, 337 aa (protein) MVKEKLVRFLPRTVSRLPEEEIESWIKWLKEILESPHLLTVIKMEEAGDEVVSSAISYALYKAFSTNEQDKDNWNGQLKLLLEWNQLDLASDEIFTNDRRWESADLQEVMFTALIKDRPKFVRLFLENGLNLQKFLTNEVLTELFSTHFSTLVYRNLQIAKNSYNDALLTFVWKLVANFRRSFWKEDRSSREDLDVELHDASLTTRHPLQALFIWAILQNKKELSKVIWEQTKGCTLAALGASKLLKTLAKVKNDINAAGESEELANEYETRAVELFTECYSSDEDLAEQLLVYSCEAWGGSNCLELAVEATDQHFIAQPGVQNFLSKQWYGEISRDT
not | − | TRPM8-4/pAGA3: Rat TRPM8 fragment, residues I609-K1104 (end), 495 aa (protein) NAAGESEELANEYETRAVELFTECYSSDEDLAEQLLVYSCEAWGGSNCLELAVEATDQHFIAQPGVQNFLSKQWYGEISRDTKNWKIILCLFIIPLVGCGLVSFRKKPIDKHKKLLWYYVAFFTSPFVVFSWNVVFYIAFLLLFAYVLLMDFHSVPHTPELILYALVFVLFCDEVRQWYMNGVNYFTDLWNVMDTLGLFYFIAGIVFRLHSSNKSSLYSGRVIFCLDYIIFTLRLIHIFTVSRNLGPKIIMLQRMLIDVFFFLFLFAVWMVAFGVARQGILRQNEQRWRWIFRSVIYEPYLAMFGQVPSDVDSTTYDFSHCTFSGNESKPLCVELDEYNLPRFPEWITIPLVCIYMLSTNILLVNLLVAMFGYTVGIVQENNDQVWKFQRYFLVQEYCNRLNIPFPFVVFAYFYMVVKKCFKCCCKEKNTESSACCFRNEDNETLAWEGVMKENYLVKINTKANDNAEEMRHRFRQLDTKLNDLKGLLKEIANKIK
